In this experiment the target is T1, DREB2A full-length fused to a YFP fragment (BiFC construct in pBI221) (Arabidopsis thaliana, UniProt O82132 1-335).
T1 construct: domain: full-length; Transiently expressed in Arabidopsis protoplasts, MG132 added to stabilise DREB2A; not shown: N-terminal or C-terminal half of YFP
Briefly: BiFC (split YFP), transient expression in Arabidopsis protoplasts. The method, then: Transient expression analysis using protoplasts from Arabidopsis thaliana mesophyll cells was conducted in accordance with the method of Yoo et al. [Yoo et al., Nat. Protoc., Vol. 2, pp. 1565-1572 ([…])]. To offer a brief explanation, the gene was introduced into the protoplast; after standing for 14 hours, MG132, a proteasome inhibitor, was added to make a final concentration of 50 μM to stabilize the DREB2A in the plant. After standing for another 4 hours, the YFP fluorescence was examined.
Specifically, two plasmids containing DREB2A and Arabidopsis thaliana NF-YC10 were produced by amplifying full-length cDNA of DREB2A and full-length cDNA of Arabidopsis thaliana NF-YC10 by PCR and attaching each to either pBI221 [Qin et al., Plant Cell, Vol. 20, pp. 1693-1707 (2008)] which is an expression vector containing cDNA encoding the N terminal side or C terminal side of YFP, and a transient expression analysis study of both plasmids was conducted. Furthermore, one transferred from Feng Qin Ph.D. (Japan International Research Center for Agricultural Sciences, Japan) was used as the DREB2A full-length cDNA-ligated pBI221 plasmid. Full-length cDNA of Arabidopsis thaliana NF-YC10 was produced by amplification by PCR using the following primer pair and introduction at the XbaI/ClaI site of the above expression vector.

T1 sequence (O82132 whole entry, the tested form may be a part): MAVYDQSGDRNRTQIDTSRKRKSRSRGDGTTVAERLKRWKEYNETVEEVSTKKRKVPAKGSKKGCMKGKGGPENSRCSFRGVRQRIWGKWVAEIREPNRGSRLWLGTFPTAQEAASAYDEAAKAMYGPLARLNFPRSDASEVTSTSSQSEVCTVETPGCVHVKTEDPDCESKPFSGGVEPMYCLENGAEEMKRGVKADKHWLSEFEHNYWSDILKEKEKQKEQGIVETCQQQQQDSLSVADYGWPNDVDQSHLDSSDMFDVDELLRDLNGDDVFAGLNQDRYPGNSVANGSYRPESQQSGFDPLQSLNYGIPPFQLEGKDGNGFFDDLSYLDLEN

B1: Arabidopsis thaliana NF-YC10 full-length fused to a YFP fragment (BiFC construct in pBI221) (other)
chain: MVSSKKPKEKKARSDVVVNKASGRSKRSSGSRTKKTSNKVNIVKKKPEIYEISESSSSDSVEEAIRGDEAKKSNGVVSKRGNGKSVGIPTKTSKNREEDDGGAEDAKIKFPMNRIRRIMRSDNSAPQIMQDAVFLVNKATEMFIERFSEEAYDSSVKDKKKFIHYKHLSSVVSNDQRYEFLADSVPEKLKAEAALEEWERGMTDAG
notes: Transiently expressed in Arabidopsis thaliana mesophyll protoplasts; not shown: N-terminal or C-terminal half of YFP
For the molecule B1, the binding result is on record as “binds”.

These data come from patent US20150128304A1 (UNIVERSITY OF TOKYO, published 2015).
